Data as given in the Immune Epitope Database (IEDB).

Target: HLA-A*02:01
Assay: IEDB peptide-MHC binding, cellular MHC/competitive/fluorescence; ≥ and ≤ were set here for values at or beyond the usual limits of such assays
Settings: source organism: Human herpesvirus 5 strain AD169

In order of rising IC50:
1. ILARNLVPMV  1 µM
2. ALFFFDIDL  2 µM
3. RLLQTGIHV  2 µM
4. MLNIPSINV  2.5 µM
5. LLQTGIHVRV  5 µM
6. NLLMNGQQI  5 µM
7. SIYVYALPL  5 µM
8. DIYRIFAEL  12 µM
9. VLCPKNMII  12 µM
10. GLSISGNLL  16 µM
11. YLESFCEDV  16 µM
